According to patent publication US20040205843A1 (NORTH CAROLINA STATE UNIVERSITY, published 2004):
Where a chain is given by its changes, count along the chain named. Where two headings read alike, the source gives them in different places.

T1: AL1 160-352 (tomato golden mosaic virus (TGMV), UniProt P03567 160-352)
T1 sequence: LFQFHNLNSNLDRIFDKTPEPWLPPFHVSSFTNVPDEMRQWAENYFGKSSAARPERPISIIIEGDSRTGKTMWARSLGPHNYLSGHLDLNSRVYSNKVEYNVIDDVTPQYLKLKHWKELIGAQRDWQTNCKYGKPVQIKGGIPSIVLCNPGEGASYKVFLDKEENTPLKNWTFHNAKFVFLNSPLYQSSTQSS

T2: TGMV AL1, wild type, full length, untagged (tomato golden mosaic virus (TGMV), UniProt P03567 1-352)
T2 construct: also called Rep; authentic AL1
T2 sequence: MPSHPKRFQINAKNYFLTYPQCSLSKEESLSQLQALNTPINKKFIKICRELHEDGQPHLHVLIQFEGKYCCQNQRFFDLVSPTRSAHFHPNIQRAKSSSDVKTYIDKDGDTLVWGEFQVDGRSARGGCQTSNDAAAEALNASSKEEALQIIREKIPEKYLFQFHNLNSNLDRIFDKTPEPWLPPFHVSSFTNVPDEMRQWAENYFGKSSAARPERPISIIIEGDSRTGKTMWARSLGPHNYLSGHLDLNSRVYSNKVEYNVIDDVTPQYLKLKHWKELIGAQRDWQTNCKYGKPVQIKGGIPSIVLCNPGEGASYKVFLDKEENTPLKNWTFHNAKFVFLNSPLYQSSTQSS

T3: AL1 147-352 (tomato golden mosaic virus (TGMV), UniProt P03567 147-352)
T3 sequence: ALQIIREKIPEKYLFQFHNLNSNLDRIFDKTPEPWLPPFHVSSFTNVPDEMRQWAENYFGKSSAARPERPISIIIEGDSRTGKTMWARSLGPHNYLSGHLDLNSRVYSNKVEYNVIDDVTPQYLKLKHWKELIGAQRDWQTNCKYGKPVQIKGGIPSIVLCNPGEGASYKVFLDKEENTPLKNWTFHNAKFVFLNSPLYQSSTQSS

T4: AL1 134-352 (tomato golden mosaic virus (TGMV), UniProt P03567 134-352)
T4 sequence: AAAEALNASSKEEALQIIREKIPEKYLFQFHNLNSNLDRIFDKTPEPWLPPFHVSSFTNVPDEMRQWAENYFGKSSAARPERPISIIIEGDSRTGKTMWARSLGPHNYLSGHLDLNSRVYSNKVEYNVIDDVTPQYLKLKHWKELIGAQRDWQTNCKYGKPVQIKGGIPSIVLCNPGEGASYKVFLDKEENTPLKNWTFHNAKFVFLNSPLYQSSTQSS

T5: AL1 119-352 (tomato golden mosaic virus (TGMV), UniProt P03567 119-352)
T5 sequence: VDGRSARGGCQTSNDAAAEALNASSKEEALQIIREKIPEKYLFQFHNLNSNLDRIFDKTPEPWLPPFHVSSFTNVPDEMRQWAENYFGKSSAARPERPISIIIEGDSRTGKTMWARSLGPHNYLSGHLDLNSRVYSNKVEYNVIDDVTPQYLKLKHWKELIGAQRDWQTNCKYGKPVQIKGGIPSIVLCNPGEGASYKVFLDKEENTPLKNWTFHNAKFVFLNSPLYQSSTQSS

T6: Full length GST-AL1 1-352 (tomato golden mosaic virus (TGMV), UniProt P03567 1-352)
T6 sequence: T2 sequence

T7: GST-AL1(1-180) (tomato golden mosaic virus (TGMV), UniProt P03567 1-180)
T7 construct: also called C-terminal truncation of AL1 fused to GST
T7 sequence: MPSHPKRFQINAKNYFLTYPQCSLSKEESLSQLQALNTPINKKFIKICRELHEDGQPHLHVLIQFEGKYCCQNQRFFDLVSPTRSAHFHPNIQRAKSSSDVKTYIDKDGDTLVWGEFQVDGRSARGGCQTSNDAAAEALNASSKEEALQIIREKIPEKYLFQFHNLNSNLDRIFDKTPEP

T8: GST-AL1(119-352) (tomato golden mosaic virus (TGMV), UniProt P03567 119-352)
T8 construct: also called N-terminal truncation of AL1 fused to GST
T8 sequence: T5 sequence

B1: GST-AL1 119-180 (other)
chain: VDGRSARGGCQTSNDAAAEALNASSKEEALQIIREKIPEKYLFQFHNLNSNLDRIFDKTPEP
B2: AL1 1-168 (other)
chain: MPSHPKRFQINAKNYFLTYPQCSLSKEESLSQLQALNTPINKKFIKICRELHEDGQPHLHVLIQFEGKYCCQNQRFFDLVSPTRSAHFHPNIQRAKSSSDVKTYIDKDGDTLVWGEFQVDGRSARGGCQTSNDAAAEALNASSKEEALQIIREKIPEKYLFQFHNLNS
B3: AL1 1-158 (other)
chain: MPSHPKRFQINAKNYFLTYPQCSLSKEESLSQLQALNTPINKKFIKICRELHEDGQPHLHVLIQFEGKYCCQNQRFFDLVSPTRSAHFHPNIQRAKSSSDVKTYIDKDGDTLVWGEFQVDGRSARGGCQTSNDAAAEALNASSKEEALQIIREKIPEK
B4: AL1 E--N140 + KEE146 (Ala4+5) fused to the Gal4 activation domain (pNSB757) (other)
chain: T2 sequence with E137A, N140A, K144A, E145A, E146A
B5: AL1 FQ118 (Ala13) fused to the Gal4 activation domain (pNSB872) (other)
chain: T2 sequence with F117A, Q118A
B6: AL1 EKY159 (Ala7), full length, untagged (other)
chain: T2 sequence with E157A, K158A, Y159A
B7: AL1 K144 fused to the Gal4 activation domain (pNSB916) (other)
chain: T2 sequence with K144A
B8: AL1 REK154 (Ala6) fused to the Gal4 activation domain (pNSB759) (other)
chain: T2 sequence with R152A, E153A, K154A
B9: AL1 KEE146 (Ala5) fused to the Gal4 activation domain (pNSB894) (other)
chain: T2 sequence with K144A, E145A, E146A
B10: AL1 RS-R125 (Ala1) fused to the Gal4 activation domain (pNSB786) (other)
chain: T2 sequence with R122A, S123A, R125A

How the values were obtained:
AL1 160-352 = target: T1, AL1 160-352; assay: GST co-purification from insect cells, immunoblot
[1] = target: T2, TGMV AL1, wild type, full length, …; assay: GST co-purification from insect cells, immunoblot
AL1 147-352 = target: T3, AL1 147-352; assay: GST co-purification from insect cells, immunoblot
AL1 134-352 = target: T4, AL1 134-352; assay: GST co-purification from insect cells, immunoblot
AL1 119-352 = target: T5, AL1 119-352; assay: GST co-purification from insect cells, immunoblot
[2] = target: T6, Full length GST-AL1 1-352; assay: GST co-purification on glutathione-sepharose from insect cells, immunoblot
[3] = target: T9, Wild type TGMV AL1 fused to the Gal4 DNA binding domain (pNSB736) (tomato golden mosaic virus (TGMV))
[4] = target: T9, Wild type TGMV AL1 fused to the Gal4 …; remark: listed apart in the source
[5] = target: T10, Maize Rb (amino acids 214-866) fused to the Gal4 DNA binding domain (Zm214C) (maize)
T10 sequence (P04386 1-147): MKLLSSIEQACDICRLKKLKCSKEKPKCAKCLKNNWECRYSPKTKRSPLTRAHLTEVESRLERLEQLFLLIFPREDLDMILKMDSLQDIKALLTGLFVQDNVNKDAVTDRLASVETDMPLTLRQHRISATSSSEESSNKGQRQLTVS

GST-AL1(1-180) = target: T7, GST-AL1(1-180); assay: GST co-purification from insect cells, immunoblot
GST-AL1 119-180 = target: B1; assay: GST co-purification from insect cells, immunoblot
GST-AL1(119-352) = target: T8, GST-AL1(119-352); assay: GST co-purification from insect cells, immunoblot
[6] = target: T6, Full length GST-AL1 1-352; assay: GST co-purification from insect cells, immunoblot
[7] = target: T10, Maize Rb (amino acids 214-866) fused to …; remark: listed apart in the source
[8] = target: T9, Wild type TGMV AL1 fused to the Gal4 …; assay: yeast two-hybrid, beta-galactosidase activity

Binder: B1
- binding result (AL1 160-352): no binding
- binding result [1]: binds
- binding result (AL1 147-352): no binding
- binding result (AL1 134-352): binds
- binding result (AL1 119-352): binds

Binder: B2
- binding result [2]: no binding

Binder: B3
- binding result [2]: no binding

Binder: B4
- oligomer. (oligomerization activity relative to wild type) [3]: 88 relative to wild type (100)
- oligomer. (oligomerization activity relative to wild type) [4]: 88 relative to wild type (100)
- Rep/Rb (Rb binding activity relative to wild type) [5]: 45 relative to wild type (100)

Binder: B5
- oligomer. (oligomerization activity relative to wild type) [3]: 95 relative to wild type (100)
- oligomer. (oligomerization activity relative to wild type) [4]: 95 relative to wild type (100)
- Rep/Rb (Rb binding activity relative to wild type) [5]: 23 relative to wild type (100)

Binder: B6
- binding result (GST-AL1(1-180)): no binding
- binding result (GST-AL1 119-180): no binding
- binding result (GST-AL1(119-352)): binds
- binding result [6]: binds

Binder: B7
- RBR1 interactions, percent of wild type levels [7]: 42 % of wild type

Binder: B8
- fold reduction of RBR1 binding activity against wild type [7]: 2 fold
- oligomer. (oligomerization activity relative to wild type) [3]: 57 relative to wild type (100)
- oligomer. (oligomerization activity relative to wild type) [4]: 57 relative to wild type (100)
- Rep/Rb (Rb binding activity relative to wild type) [5]: 69 relative to wild type (100)

Binder: B9
- AL1 interactions, percent of wild type AL1/AL1 mediated activation [8]: 51 % of wild type
- RBR1 binding activity, percent of wild type [7]: 16 % of wild type

Binder: B10
- oligomer. (oligomerization activity relative to wild type) [3]: 27 relative to wild type (100)
- oligomer. (oligomerization activity relative to wild type) [4]: 27 relative to wild type (100)
- Rep/Rb (Rb binding activity relative to wild type) [5]: 20 relative to wild type (100)
